{
  "source": "paper PMC7111312",
  "about": "(Virology, 2019)",
  "proteins": {"B1": {"name": "Wild type CavV 3CLpro (Cavally virus 3C-like protease) (enzyme, Cavally virus (CavV), UniProt F8RL29 1387-1700, looked up)", "chain": "SAASNPSISHIVLEMPVAINPLIKYTTRTSVSSLRGAVVNGYIYIQRHLFGSKKQEFEACYNNGKGLLNCKNLERSKYDIDSAELIGTLIRIPLHDKHSIPHISIHPDPLSYNGPVTLYLSRYDTELNKDVLCVHTGFMSEGHHDIKTVFGDCGGMLFDPKGRLLGLHCAGSDDVVFMDTTTGKSNIWTSYKLQHPSEIMITLNNEINLPNPANYDFETTKVVYQHPLRNVCATLETLQHLTNKTNAKLPYDSRLLSDFNITAEQYNQYGYYIDYNNFVNNFNRYTTTTIGTKSFETCIKYGLMDNKKPDYYNQ"}},
  "biological_target": "the molecule itself",
  "assay": "crystal structure",
  "data": [
    {"protein": "B1", "values": [
      {"measurement": "stoichiometry N", "value": 2}
    ]}
  ]
}
